# Laboratory results from patent publication US20150133308A1 (KOREA ADVANCED INSTITUTE OF SCIENCE AND TECHNOLOGY, published 2015).
# Biological target: T1, human interleukin-6 (human, UniProt P05231 30-212)
# T1 construct: also called hIL-6; IL-6
# Test: phage ELISA, 96-well plate coated with IL-6 and BSA
row,Binder,OD450 on IL-6 relative to BSA [fold]
1,"r-B10 (designed binder, on phage in the ELISA) ETITVSTPIKQIFPDDAFAETIKANLKKKSVTDAVTQNELNSIDQIIANNSDIKSVQGIQYLPNVRYLALGGNKLHDISALKELTNLTYLVLDPNQLQSLPNGVFDKLTNLKELSLWTNQLQSLPDGVFDKLTNLTYLNLAHNQLQSLPKGVFDKLTNLTELDLSYNQLQSLPEGVFDKLTQLKDLRLYQNQLKSVPDGVFDRLTSLQYIWLHDNPWDCTCPGIRYLSEWINKHSGVVRNSAGSVAPDSAKCSGSGKPVRSIICPT",≥ 10
2,"r-F7 (designed binder, on phage in the ELISA) ETITVSTPIKQIFPDDAFAETIKANLKKKSVTDAVTQNELNSIDQIIANNSDIKSVQGIQYLPNVRYLALGGNKLHDISALKELTNLTYLVLDPNQLQSLPNGVFDKLTNLKELSLWTNQLQSLPDGVFDKLTNLTYLNLAHNQLQSLPKGVFDKLTNLTELDLSYNQLQSLPEGVFDKLTQLKDLRLYQNQLKSVPDGVFDRLTSLQYIWLHDNPWDCTCPGIRYLSEWINKHSGVVRNSAGSVAPDSAKCSGSGKPVRSIICPT",≥ 10
